Experimental findings from patent publication CN111434681A are described below.

“And” between values parts separate entries of the source, which are not always exact repeats. Equal values may be shown once.

The target of assay [1] is H7N9病毒的HA蛋白(购自ACROBiosystems) (H7N9 influenza virus).
For assay [2] the target is unchanged. The source holds these as a separate data set.
For assay [3], the target named is H7N9病毒 A/Anhui/1/2013 (血凝素HA on virus) (influenza A virus A/Anhui/1/2013 (H7N9)). The assay can be described thus: cell-based or functional assay.

B1: 抗H7N9全人源单克隆抗体6J15 (antibody, V domains shown)
VH: QVQLVESGAEVKKPGASVKVSCKASGYNIFTSYDINWVRQATGQGLEWMGWMNPDSGDTGFAQKFQGRVTMTRNTSITTAYMELSSLTSEDTAVYYCATGNADCSGSCYNWFDPWGQGTLVTVSS
VL: SSELTQDPAVSVALGQTVRITCQGDRLRSTYYASWYQQKPGQAPVLVIYGKNNRPSGIPDRFSGSSSGNTASLTITGAQAEDEADYYCNSRDTSGYHLVFGGGTKLTVLV
For B1, the 450nm (OD) in assay [1] is 2.25 OD 450nm and 1.85 OD 450nm and 1.78 OD 450nm. Moreover, the Kd (as a rule, the concentration at which binding is half-saturated) in assay [2] is 2.06 nM. In addition, the 微量中和-ELISA实验 (MDCK cells, 100TCID50 virus), IC50 in assay [3] was found to be 0.35 µg/mL.
